Assays:
[1] = molecular target: human CaV2.2 pore-forming subunit α1B (CACNA1B), wild type (human) (UniProt Q00975)
[2] = molecular target: human CaV2.2 α1B D185C (VSD I labelling variant) (human) (UniProt Q00975)
[3] = molecular target: human CaV2.2 α1B N1266C (VSD III labelling variant) (human) (UniProt Q00975)
[4] = molecular target: human CaV2.2 α1B N1580C (VSD IV labelling variant) (human) (UniProt Q00975)

shift of V0.5 of CaV2.2 pore opening toward positive potentials by coexpressed Gβγ (tail currents, cut-open oocyte voltage clamp, 20 ms pulses) [1]: 14 mV
shift of V0.5 of VSD I activation by coexpressed Gβγ (voltage-clamp fluorometry, ΔF-V) [2]: 21 mV
shift of V0.5 of VSD III activation by coexpressed Gβγ (voltage-clamp fluorometry, ΔF-V); VSD III was not modulated by Gβγ [3]: -0.1 mV
shift of V0.5 of VSD IV activation by coexpressed Gβγ (voltage-clamp fluorometry, ΔF-V); modest inhibition [4]: 13 mV
Substance: Gβγ complex of human Gβ1 and Gγ2 (from UniProt P62873 1-340; P59768 1-71)

Reference: article PMC11389781
